According to article PMC6235398, “Unveiling the structural features that determine the dual methyltransferase activities of Streptococcus pneumoniae RlmCD”:

Assays:
[1] = target: RlmCD D381A (Streptococcus pneumoniae, UniProt Q97R12 1-543, D381A); experiment: EMSA; 5 uM SAH; not severely affected vs WT; EMSA: 20 mM Tris-HCl pH 8.0, 250 mM NaCl, 1 mM MgCl2, 0.5 uM FAM-RNA, 5 uM SAH, 0-5 uM protein, 37 C 30 min; 10% native PAGE on ice; details: protein: recombinant, tags: 8xHis-SUMO removed by ULP1, label: 5'-FAM
[2] = target: RlmCD Q283A (Streptococcus pneumoniae, UniProt Q97R12 1-543, Q283A); experiment: as above; details: protein: recombinant, tags: 8xHis-SUMO removed by ULP1, label: 5'-FAM
[3] = target: RlmCD F145A (Streptococcus pneumoniae, UniProt Q97R12 1-543, F145A); experiment: EMSA; 5 uM SAH; almost no effect vs WT; EMSA: 20 mM Tris-HCl pH 8.0, 250 mM NaCl, 1 mM MgCl2, 0.5 uM FAM-RNA, 5 uM SAH, 0-5 uM protein, 37 C 30 min; 10% native PAGE on ice; details: protein: recombinant; tags: 8xHis-SUMO removed by ULP1; label: 5'-FAM; 5' single strand with 3' hairpin
[4] = target: RlmCD WT (Streptococcus pneumoniae, UniProt Q97R12 1-543); experiment: EMSA; 5 uM SAH; two shifted bands; EMSA: 20 mM Tris-HCl pH 8.0, 250 mM NaCl, 1 mM MgCl2, 0.5 uM FAM-RNA, 5 uM SAH, 0-5 uM protein, 37 C 30 min; 10% native PAGE on ice; details: protein: recombinant; tags: 8xHis-SUMO removed by ULP1; label: 5'-FAM; 5' single strand with 3' hairpin
[5] = target: T1, RlmCD 1-454 E443Q (Streptococcus pneumoniae, UniProt Q97R12 1-454, E443Q); experiment: X-ray crystallography; SAH (SAM added); covalent C408-U1939; 3.10 A; EMSA: 20 mM Tris-HCl pH 8.0, 250 mM NaCl, 1 mM MgCl2, 0.5 uM FAM-RNA, 5 uM SAH, 0-5 uM protein, 37 C 30 min; 10% native PAGE on ice; details: protein: recombinant; tags: 8xHis-SUMO removed by ULP1; single strand
[6] = target: T1, RlmCD 1-454 E443Q; experiment: X-ray crystallography; SAH (SAM added); covalent C408-U747; space group P1, two complexes per asymmetric unit; EMSA: 20 mM Tris-HCl pH 8.0, 250 mM NaCl, 1 mM MgCl2, 0.5 uM FAM-RNA, 5 uM SAH, 0-5 uM protein, 37 C 30 min; 10% native PAGE on ice; details: protein: recombinant; tags: 8xHis-SUMO removed by ULP1; hairpin, 2 bp stem (743-754, 744-753)
[7] = target: T1, RlmCD 1-454 E443Q; experiment: X-ray crystallography; SAH (SAM added); covalent C408-U747; EMSA: 20 mM Tris-HCl pH 8.0, 250 mM NaCl, 1 mM MgCl2, 0.5 uM FAM-RNA, 5 uM SAH, 0-5 uM protein, 37 C 30 min; 10% native PAGE on ice; details: protein: recombinant; tags: 8xHis-SUMO removed by ULP1; single strand
[8] = 5' single strand with 3' hairpin
[9] = hairpin, 2 bp stem (743-754, 744-753)

## GCGAAAUUCCUUGUCGGGUAAGUUCCGACC (structured_RNA) [FAM-U1939 30-nt]
[1]; [8]
  binding result: binds
[2]; [8]
  binding result: binds
[3]
  binding result: binds
[4]
  binding result: binds

## AAAUUCCU (ssRNA, m5 at U1939 formed in crystal, covalent to C408) [U1939L]
[5]
  binding result: binds

## CCGUUGAAAAGG (structured_RNA, m5 at U747 formed in crystal, covalent to C408) [U747SL]
[6]
  binding result: binds

## GUUGAAAA (ssRNA, m5 at U747 formed in crystal, covalent to C408) [U747L]
[7]
  binding result: binds

## CCGUUGAAAAGG (structured_RNA) [FAM-U747SL]
[1]; [9]
  binding result: binds
[2]; [9]
  binding result: binds
